Results as given in PMC7118224, “Molecular and Functional Analysis of Pore-Forming Toxin Monalysin From Entomopathogenic Bacterium Pseudomonas entomophila” (Frontiers in Immunology, 2020).

How the values were obtained:
[1] = target: endogenous pro-Monalysin (Pseudomonas entomophila (endogenous in strain L48)) (UniProt Q1I8U1); test: high-speed atomic force microscopy; on mica surface in PBS buffer, room temperature (24-26°C)
[2] = target: endogenous pro-Monalysin (Pseudomonas entomophila (endogenous in strain L48)) (UniProt Q1I8U1); test: high-speed atomic force microscopy; on mica surface in low salt buffer (30 mM NaCl, 10 mM sodium phosphate, pH 7.0), strongly immobilised
[3] = target: the molecule itself; test: MALDI-TOF MS; active-Monalysin mixed with sinapic acid matrix; molecular weight of the multimer
[4] = target: the molecule itself; test: high-speed atomic force microscopy; on mica surface in low salt buffer (30 mM NaCl, 10 mM sodium phosphate, pH 7.0), strongly immobilised

endogenous pro-Monalysin (from UniProt Q1I8U1 1-271) (natural protein)
stoichiometry N [1]: 16
stoichiometry N [2]: 8

B1: active-Monalysin (trypsin-treated endogenous pro-Monalysin) (natural protein, UniProt Q1I8U1 34-271, looked up)
chain: NLSGRFDQYPTKKGDFAIDGYLLDYSSPKQGCWVDGITVYGDIYIGKQNWGTYTRPVFAYLQYVETISIPQNVTTTLSYQLTKGHTRSFETSVNAKYSVGANIDIVNVGSEISTGFTRSESWSTTQSFTDTTEMKGPGTFVIYQVVLVYAHNATSAGRQNANAFAYSKTQAVGSRVDLYYLSAITQRKRVIVPSSNAVTPLDWDTVQRNVLMENYNPGSNSGHFSFDWSAYNDPHRRY
notes: Monalysin of Pseudomonas entomophila, product of trypsin cleavage of the pro-form; monomer of 27 kDa on SDS-PAGE; also called active-form; cleaved mature form; source: purified pro-Monalysin from P. entomophila L48, treated with trypsin (0.2 mg/mL, 25°C, 10 min)
stoichiometry N [3]: ~8
stoichiometry N [4]: 8
